# Experimental data reported in patent US20170305997A1 (Janssen / Centocor, published 2017).
# B1: P114AR5P74-A5 (designed binder)
# chain: LPAPKNLVVSRVTEDSARLSWTAPDAAFDSFWIRYDEVVVGGEAIVLTVPGSERSYDLTGLKPGTEYYVNILGVKGGSISVPLSAIFTTHHHHHH
# B2: A3 F38S (designed binder)
# chain: LPAPKNLVVSEVTEDSARLSWDDPWAFYESFLIQYQESEKVGEAIVLTVPGSERSYDLTGLKPGTEYTVSIYGVHNVYKDTNMRGLPLSAIFTTAPAPAPAPAPLPAPKNLVVSRVTEDSARLSWTAPDAAFDSFWIRYFESLGSGEAIVLTVPGSERSYDLTGLKPGTEYVVNIMGVKGGKISPPLSAIFTT
# How the values were obtained:
# [1] = target: T1, human c-Met on cells (human, UniProt P08581 25-1390); assay: cell-based or functional assay
# [2] = target: T1, human c-Met on cells; assay: cell-based or functional assay; remark: listed apart in the source
# [3] = target: T1, human c-Met on cells; assay: cell-based or functional assay; remark: listed apart in the source
# [4] = target: T1, human c-Met on cells; assay: binding to NCI-H441 cells, anti-His fluorescence
# Procedure: Purified FN3 domains (50 μL/well; 0 to 1000 nM) were added to the cells for 1 hour at 4° C. in duplicate plates. […] Cells were incubated with biotinylated-anti HIS antibody (diluted 1:160 in FACS stain buffer, 50 μL/well, R&D Systems, cat # BAM050) for 30 minutes at 4° C. […] Cells were washed three times with FACS stain buffer (150 μL/well) and left in FACS stain buffer (50 μL/well).
# [5] = target: Recombinant human c-Met Fc chimera (human) (UniProt P08581); assay: SPR, serine scan in the ECB15 context
Binder,inhibition of c-Met phosphorylation in NCI-H292 cells (IC50) [1],Inhibition of Proliferation of U87-MG cells (IC50) [2],pMet inhibition in H441 cells (IC50) [2],IC50 (nM) (ERK phosphorylation) [3],EC50 [4],Fold Change of KD against the parent [5]
B1,610 nM,464 nM,1.08 µM,2370 nM,18.7 nM,
B2,,,,,,1790 fold
